Measurements from patent publication US20260049134A1 (UNIVERSITY OF FLORIDA RESEARCH FOUNDATION, published 2026).

T1: DCC
T1 construct: coated protein in the ELISA; also called DCC-His (R&D Systems)
T1 chain: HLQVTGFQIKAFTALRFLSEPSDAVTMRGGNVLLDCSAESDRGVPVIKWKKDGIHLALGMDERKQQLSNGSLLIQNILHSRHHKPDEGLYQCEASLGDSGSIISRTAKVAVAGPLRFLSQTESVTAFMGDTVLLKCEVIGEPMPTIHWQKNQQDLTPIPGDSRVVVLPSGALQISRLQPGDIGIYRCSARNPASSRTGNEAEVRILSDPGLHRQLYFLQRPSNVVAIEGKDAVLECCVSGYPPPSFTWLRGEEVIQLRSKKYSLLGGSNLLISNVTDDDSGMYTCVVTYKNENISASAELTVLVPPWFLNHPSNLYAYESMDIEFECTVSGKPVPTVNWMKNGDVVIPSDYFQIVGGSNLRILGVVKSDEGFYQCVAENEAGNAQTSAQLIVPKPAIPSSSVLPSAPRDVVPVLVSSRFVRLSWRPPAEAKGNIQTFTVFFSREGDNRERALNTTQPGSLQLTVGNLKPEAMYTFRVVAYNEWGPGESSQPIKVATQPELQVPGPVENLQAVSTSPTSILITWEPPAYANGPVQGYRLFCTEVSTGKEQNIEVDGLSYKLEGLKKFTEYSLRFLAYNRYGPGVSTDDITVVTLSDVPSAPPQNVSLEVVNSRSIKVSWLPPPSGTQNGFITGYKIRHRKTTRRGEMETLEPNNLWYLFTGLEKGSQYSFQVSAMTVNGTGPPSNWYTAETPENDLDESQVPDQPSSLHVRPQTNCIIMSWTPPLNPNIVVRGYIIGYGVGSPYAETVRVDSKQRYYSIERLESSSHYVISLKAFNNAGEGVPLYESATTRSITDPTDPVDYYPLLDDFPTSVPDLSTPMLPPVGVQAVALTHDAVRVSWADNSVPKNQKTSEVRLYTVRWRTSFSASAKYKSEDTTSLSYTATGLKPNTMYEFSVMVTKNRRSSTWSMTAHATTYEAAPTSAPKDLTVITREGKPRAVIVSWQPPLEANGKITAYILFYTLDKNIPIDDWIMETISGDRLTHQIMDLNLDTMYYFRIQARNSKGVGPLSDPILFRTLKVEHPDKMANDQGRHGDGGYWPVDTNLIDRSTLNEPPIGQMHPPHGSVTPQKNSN


Key:
PTP4A3 (PRL-3) = molecular target: T2, PTP4A3 (PRL-3); experiment: ELISA on coated His-PTP4A3
T2 construct: coated protein in the ELISA; also called His-PTP4A3 (R&D Systems)
Experimental: (§1) Recombinant purified ECDs (50-150 ng) of each putative target protein were coated, incubated with 150 ng of the indicated primary antibody, and binding was detected using a peroxidase-conjugated anti-human Fab secondary antibody. Heatmap represents averages of technical triplicates. (8B) Target validation via siRNA knockdown. H929 cells were transfected with siRNA pools targeting the putative antibody targets ICAM1, CADM1, and PTPRG. Cells were then subjected to cognate IgG binding analysis via flow cytometry. (NT, non-targeting siRNA).
(§2) ELISA ELISA was conducted as described previously. Briefly, 50-150 ng of antigen was coated overnight in half-area 96-well plates at 4° C., blocked with 3% BSA at 37° C. for 1 h, and 150 ng of chimeric rabbit/human IgG1 was added, incubating for 2 h at 37° C. […] After incubating at 37° C. for 15 min-1 h (depending on intensity of controls), data were acquired using a SpectraMax M5 plate reader (Molecular Devices).

DCC = molecular target: T1, DCC; experiment: ELISA on coated DCC-His, 150 ng IgG1; None 0.095
Experimental: as §1, §2

PTPRG on U266 cells = molecular target: T3, PTPRG on U266 cells (human, UniProt P23470); experiment: flow cytometry, IgG1 on U266 cells
T3 construct: endogenous on U266 multiple myeloma cells; also called HW-1 target on U266
Experimental: Staining protocol. Cells were harvested (5×10⁴ cells per sample), washed once with phosphate-buffered saline (PBS) at RT, and a second time with ice-cold FACS buffer (PBS, 0.5% BSA, 2 mM EDTA, 0.1% NaN₃). Cells were stained in 50 μL of primary antibody for 30 min on ice, washed twice with 100 μL FACS buffer, stained with 50 μL of diluted secondary antibody, washed two more times in FACS, and then resuspended in 50 μL FACS buffer. Samples were acquired on an Accuri C6 Plus or a BD FACSCanto II flow cytometer (both from BD Biosciences). Data were analyzed using FlowJo version 10 software. Primary antibodies: Fab (10 μg/mL), IgG1 (0.1 to 50 μg/mL), or 25 μL polyclonal Fabs from periplasmic extracts. Polyclonal Fabs were produced by diluting bacterial stocks by a factor of 100 in autoinduction media and incubating overnight to induce expression as previously described. […] Viability stains: DAPI (Cell Signaling Technology) or SYTOX AADvanced Dead Cell Stain (Thermo Fisher Scientific). Labeling: The panel of chimeric rabbit/human IgG1s was labeled using the Alexa Fluor 647 Labeling Kit (Thermo Fisher Scientific, #A20173) to facilitate single-step staining. Competition: Unlabeled IgG1s were added at saturating concentrations of 60 μg/mL to block the target receptors, incubating on ice for 30 min, followed by the addition of an equal volume of the Alexa Fluor 647 labeled antibody at 2 μg/mL, and the mixture was incubated on ice for another 30 min.

T2 sequence (chain, as listed by the source limits assumed): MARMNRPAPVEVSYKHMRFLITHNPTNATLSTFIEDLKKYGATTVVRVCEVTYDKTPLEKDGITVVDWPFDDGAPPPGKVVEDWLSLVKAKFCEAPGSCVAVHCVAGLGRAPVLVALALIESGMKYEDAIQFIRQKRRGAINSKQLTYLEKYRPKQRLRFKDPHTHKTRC
T3 sequence (P23470 20-1445 limits assumed): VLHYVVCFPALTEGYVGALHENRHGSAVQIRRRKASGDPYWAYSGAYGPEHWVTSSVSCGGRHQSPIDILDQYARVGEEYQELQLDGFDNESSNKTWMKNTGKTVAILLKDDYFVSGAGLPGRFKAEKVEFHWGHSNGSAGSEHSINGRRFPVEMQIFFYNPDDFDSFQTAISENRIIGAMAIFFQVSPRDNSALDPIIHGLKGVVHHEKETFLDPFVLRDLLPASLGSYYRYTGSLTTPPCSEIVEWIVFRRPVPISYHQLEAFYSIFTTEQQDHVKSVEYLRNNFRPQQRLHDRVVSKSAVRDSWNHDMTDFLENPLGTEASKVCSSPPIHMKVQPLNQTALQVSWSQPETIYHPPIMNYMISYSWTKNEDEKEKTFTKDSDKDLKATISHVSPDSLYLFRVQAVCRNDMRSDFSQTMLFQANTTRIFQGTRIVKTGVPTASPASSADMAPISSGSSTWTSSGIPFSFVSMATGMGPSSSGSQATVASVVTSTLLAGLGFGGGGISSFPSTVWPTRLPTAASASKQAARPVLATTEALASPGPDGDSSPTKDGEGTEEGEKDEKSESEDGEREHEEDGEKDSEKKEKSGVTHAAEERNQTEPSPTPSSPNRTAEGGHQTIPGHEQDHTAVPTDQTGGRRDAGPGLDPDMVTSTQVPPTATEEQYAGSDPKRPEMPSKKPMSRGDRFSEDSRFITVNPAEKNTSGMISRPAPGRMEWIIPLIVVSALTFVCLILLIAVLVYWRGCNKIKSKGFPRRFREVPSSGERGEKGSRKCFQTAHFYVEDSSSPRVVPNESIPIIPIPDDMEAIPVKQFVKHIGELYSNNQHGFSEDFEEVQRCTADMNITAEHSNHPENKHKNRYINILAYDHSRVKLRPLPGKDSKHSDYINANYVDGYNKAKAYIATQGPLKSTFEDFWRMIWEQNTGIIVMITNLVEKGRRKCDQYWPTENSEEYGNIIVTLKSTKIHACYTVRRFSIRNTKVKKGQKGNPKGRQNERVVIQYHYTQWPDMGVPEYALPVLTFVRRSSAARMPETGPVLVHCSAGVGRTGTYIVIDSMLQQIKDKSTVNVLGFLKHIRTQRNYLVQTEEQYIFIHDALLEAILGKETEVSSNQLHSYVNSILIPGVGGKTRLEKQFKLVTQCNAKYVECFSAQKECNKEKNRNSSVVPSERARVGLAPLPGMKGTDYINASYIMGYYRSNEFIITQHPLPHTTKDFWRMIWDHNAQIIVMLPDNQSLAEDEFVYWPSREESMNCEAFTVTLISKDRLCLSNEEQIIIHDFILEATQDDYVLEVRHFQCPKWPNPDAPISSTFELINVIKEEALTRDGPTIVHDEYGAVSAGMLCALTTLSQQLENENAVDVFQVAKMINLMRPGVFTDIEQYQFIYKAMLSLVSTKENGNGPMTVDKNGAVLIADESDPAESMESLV

Binder | ELISA Absorbance (405 nm-570 nm) (DCC) | antibody-bound positive cells (%) (PTPRG on U266 cells) | binding result (PTP4A3 (PRL-3))
TH9-0022 (antibody, human IgG1, kappa, L234A L235A, V domains shown, also called TH9-022; negative control) VH: QSLEESGGRLVTPGTPLTLTCTVSGFSLSSYAMNWVRQAPGKGLEWIGIINSYGSTYYASWAKGRFTISKTSTTVDLKITSPTTEDTATYFCARVTYDSYGYGYAPYGMDLWGPGTLVTVSS VL: LVMTQTPSSTSNAVGGTVTIKCQASQSIGNVLAWYQQKPGQPPKLLIYAASTLASGVPSRVGGSRSGTEYTLTISGVQREDAATYYCLGSDSDSDIAFGGGTELEILR | 0.079 | – | no binding (tested: 150 ng IgG1 per well)
HW-81 chimeric rabbit-human IgG1 LA/LA/PG (antibody, V domains shown, Fc-silenced (L234A/L235A/P329G) IgG1, lambda; Alexa Fluor 647-labeled in single-step flow cytometry; Cluster C-45) VH: QKQLVESGGGLVTPGGTLTLTCTVSGFSLSSNGVSWVRQAPGKGLEYIGLIRSIGSTYYATWAKGRFTISKTSTTVDLKITSPTTEDTATYFCARGGYRNGFKLWGPGTLVTVSS VL: QPVLTQSPSVSAALGASAKLTCTLSSAHKTYYIEWYQQQHPGKAPRYLMQLQSDGSYTKGTGVPDRFSGSSSGADRYLIISSVQAEDEADYICGVIDSAVYVFGGGTQLTVTG | 0.068 | – | no binding (tested: 150 ng IgG1 per well)
HW-42 chimeric rabbit-human IgG1 LA/LA/PG (antibody, V domains shown, Fc-silenced (L234A/L235A/P329G) IgG1, lambda; Alexa Fluor 647-labeled in single-step flow cytometry; Cluster C-1) VH: QSVKESEGGLFKPADTLTLTCTVSGFSLSSNEISWVRQAPGEGLEYIGIIDTGGRAYYAVWARSRSTITRNTNLNTVTLKMTSLTAADTATYFCARGGVDTEWYAFSSWGPGTLVTVPS VL: SFVLTQPASVQVNLGQTVSLTCTADTLSRRYASWYQQKPGQAPVLLIFRDTSRPSGVPDRFSGSSSGDTATLTISGAQAGDEADYYCATSDGSGSNYQYVFGGGTQLTVTG | 0.098 | 64.5% | no binding (tested: 150 ng IgG1 per well)
HW-28 chimeric rabbit-human IgG1 LA/LA/PG (antibody, V domains shown, Fc-silenced (L234A/L235A/P329G) IgG1, lambda; Alexa Fluor 647-labeled in single-step flow cytometry; Cluster C-45) VH: QKQLVESGGRLVTPGTPLTLTCTASGFSLSSNAMSWVRQAPGEGLQWIGTISSGGSTYYASWAKGRFTISKTSTTVTLKMTSLTTEDTATYFCARGADLHRLWGPGTLVTVSS VL: SFVLTQPASVQVNLGQTVSLTCTGKPLSRSFASWYQQKPGQAPVLVIYRDTSRPSGVPDRFSGSSSGNTATLTISGAQAGDEADYYCATSDGSGSSYQYVFGGGTQLTVTG | 0.128 | – | –
HW-113 chimeric rabbit-human IgG1 LA/LA/PG (antibody, V domains shown, Fc-silenced (L234A/L235A/P329G) IgG1, lambda; Alexa Fluor 647-labeled in single-step flow cytometry) VH: QKQLVESGGGLVQPGGSLTLTCTVSGFSLNKYYMGWFRQAPGKGLEWIGVISRSGDTYYSSWAKGRFTISKASTTVDLRITSPTTEDTATYFCARDASSPGFHGDRLDLWGQGTLVTVSS VL: SFVLTQPASVQVNLGQTVSLTCTADTLSRSYASWYQQKPGQAPVLLIYRDTSRPSGVPDRFSGSSSGNTATLTISGAQAGDEADYYCATSDGIGSNYLWVFGGGTQLTVTG | 0.072 | – | no binding (tested: 150 ng IgG1 per well)
HW-97 chimeric rabbit-human IgG1 LA/LA/PG (antibody, V domains shown, Fc-silenced (L234A/L235A/P329G) IgG1, lambda; Alexa Fluor 647-labeled in single-step flow cytometry; Prototype of cluster C-97) VH: QKQLVESGGRLVTPGTPLTLTCTVTGIDLSSHGMSWVRQAPGKGLEWIGVIYPSGSTWYASWARGRFTISKTSTTVDLKMTSLTTEDTATHFCARGDVGGADNNIWGPGTLVTVSS VL: SFVLTQPASVQVDLGQTVSLTCTAETLSRSYASWYQQKPGQAPVLLIYRDTSRPSGVPDRFSGSSSGNTATLTISGAQAGDEADYYCATSDGSGSSYQYVFGGGTQLTVTG | 0.065 | – | no binding (tested: 150 ng IgG1 per well)
HW-70 chimeric rabbit-human IgG1 LA/LA/PG (antibody, V domains shown, Fc-silenced (L234A/L235A/P329G) IgG1, lambda; Alexa Fluor 647-labeled in single-step flow cytometry; Cluster C-1) VH: QSLEESGGRLVTPGTPLTLTCTVSGFSLSSNAMSWVRQAPGKGLEWIGTIDGYGYTYYASWAKGRFTVSKTSTTVDLKITSPTTEDTATYFCAREIYLGSNFWGPGTLVTISS VL: SFVLTQPASVQVNLGQTVSLTCTADTLSRRYASWYQQKPGQAPVLLIYRDTSRPSGVPDRFSGSSSGNTATLTISGAQAGDEADYYCATADGSGSSYQFVFGGGTQLTVTG | 0.086 | 76% | no binding (tested: 150 ng IgG1 per well)
HW-101 chimeric rabbit-human IgG1 LA/LA/PG (antibody, V domains shown, Fc-silenced (L234A/L235A/P329G) IgG1, lambda; Alexa Fluor 647-labeled in single-step flow cytometry; Cluster C-97) VH: QEQLVESGGRLVTPGTPLTLTCKASGFSLGKYDMSWVRQAPGKGLEWIGTIYAGSGSTWYASWAKGRFTISKTSTTVDLKMTSLTTEDTATYFCARDFLGVNSIWGPGTLVTISS VL: SFVLTQPASVQVNLGQTVSLTCTADTLSRSYASWYQQKPDQAPVLLIHRDTSRPSGVPDRFSGSNSGNTATLTISGAQAGDEADYYCATSDGSGSNFHFVFGGGTQLTVTG | 0.057 | – | no binding (tested: 150 ng IgG1 per well)

More lines, main results first:

ELISA Absorbance (405 nm-570 nm) (DCC) | antibody-bound positive cells (%) (PTPRG on U266 cells) | Binder | binding result (PTP4A3 (PRL-3))
– | 6.5% | TH9-0022 (antibody, human IgG1, kappa, L234A L235A, V domains shown, also called TH9-022; negative control IgG1) VH: QSLEESGGRLVTPGTPLTLTCTVSGFSLSSYAMNWVRQAPGKGLEWIGIINSYGSTYYASWAKGRFTISKTSTTVDLKITSPTTEDTATYFCARVTYDSYGYGYAPYGMDLWGPGTLVTVSS VL: LVMTQTPSSTSNAVGGTVTIKCQASQSIGNVLAWYQQKPGQPPKLLIYAASTLASGVPSRVGGSRSGTEYTLTISGVQREDAATYYCLGSDSDSDIAFGGGTELEILR | –
0.088 | – | HW-56 chimeric rabbit-human IgG1 LA/LA/PG (antibody, V domains shown, Fc-silenced (L234A/L235A/P329G) IgG1, kappa; Alexa Fluor 647-labeled in single-step flow cytometry; Cluster C-45) VH: QSVKESEGGLFKPTDTLTLTCTASGFTVSTNAVTWVRQAPGNGLEYIGTIGRSGSAYFASWAKRRSTLTRDINLNTVTLKMTSLTAADTATYFCVRGSPGYRTAISIWGPGTLVTISS VL: AVMTQTPSSTSAAVEGTVTINCQASQSISNRLSWFQQKPGQPPKLLIYQASTLASGVPSRFKGSGSGTEFTLTISGVQREDAATYYCLGSYSSSDASFGGGTKLEIKR | no binding (tested: 150 ng IgG1 per well)
0.074 | – | HW-8 chimeric rabbit-human IgG1 LA/LA/PG (antibody, V domains shown, Fc-silenced (L234A/L235A/P329G) IgG1, kappa; Alexa Fluor 647-labeled in single-step flow cytometry; Cluster C-45) VH: QSLEESGGRLVTPGTPLTLTCTVSGFSLSSYAMSWVRQAPGKGLEWIGAISTGGSTTYASWAKGRFTISKTSSTTVDLKMTSLTTEDTATYFCVRHFRLWGPGTLVTISS VL: QVLTQTPSSVSAAVGGTVTIKCQASQSIGSALAWFQQKPGQRPKLLIYRASNLASGVPSRFKGSGSGTEFALTISGVQREDAATYYCLGGAAAVWAFGAGTNVEIKR | no binding (tested: 150 ng IgG1 per well)
0.129 | – | HW-16 chimeric rabbit-human IgG1 LA/LA/PG (antibody, V domains shown, Fc-silenced (L234A/L235A/P329G) IgG1, kappa; Alexa Fluor 647-labeled in single-step flow cytometry; Cluster C-45) VH: QSLEESGGRLVTPGTPLTLTCTASGFSLSSYAMSWVRQAPGKGLEWIGTMPTGGGTYYASWAKGRFTISKTSTTVDLQITSPTTEDTATYFCAKHWNIWGPGTLVTISS VL: DIVLTQTPSSTSTAVGDTVTINCRASQSIGRNLAWFQQKPGQPPKLLIYRASNLASGVPSRFKGSGSRTQFTLTISGVQREDAATYYCLGSYSSSDTAFGGGTELEILR | no binding (tested: 150 ng IgG1 per well)
